Assay results as given in PMC4931921.

What was measured:
IFIT5 [1] = target: T1, IFIT5 (Homo sapiens, UniProt Q13325 1-482); assay: crystal structure 2.0 A
T1 sequence: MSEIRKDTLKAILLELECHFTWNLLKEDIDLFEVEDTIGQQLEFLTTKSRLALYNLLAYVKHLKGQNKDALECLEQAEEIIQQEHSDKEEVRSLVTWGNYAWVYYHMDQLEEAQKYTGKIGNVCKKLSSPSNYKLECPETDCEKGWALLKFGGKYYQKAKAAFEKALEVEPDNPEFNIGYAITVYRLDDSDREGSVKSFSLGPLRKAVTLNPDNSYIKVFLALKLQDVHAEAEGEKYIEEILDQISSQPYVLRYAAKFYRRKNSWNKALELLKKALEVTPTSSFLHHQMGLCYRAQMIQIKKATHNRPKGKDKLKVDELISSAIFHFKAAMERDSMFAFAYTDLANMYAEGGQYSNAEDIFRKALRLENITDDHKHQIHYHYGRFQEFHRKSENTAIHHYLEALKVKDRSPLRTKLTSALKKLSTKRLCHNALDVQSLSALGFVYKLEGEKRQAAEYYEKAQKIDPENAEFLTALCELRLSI

IFIT5 [2] = target: T1, IFIT5; assay: crystal structure 2.5 A
IFIT3 = target: T2, IFIT3 (Homo sapiens, UniProt O14879 1-490); assay: EMSA
T2 sequence: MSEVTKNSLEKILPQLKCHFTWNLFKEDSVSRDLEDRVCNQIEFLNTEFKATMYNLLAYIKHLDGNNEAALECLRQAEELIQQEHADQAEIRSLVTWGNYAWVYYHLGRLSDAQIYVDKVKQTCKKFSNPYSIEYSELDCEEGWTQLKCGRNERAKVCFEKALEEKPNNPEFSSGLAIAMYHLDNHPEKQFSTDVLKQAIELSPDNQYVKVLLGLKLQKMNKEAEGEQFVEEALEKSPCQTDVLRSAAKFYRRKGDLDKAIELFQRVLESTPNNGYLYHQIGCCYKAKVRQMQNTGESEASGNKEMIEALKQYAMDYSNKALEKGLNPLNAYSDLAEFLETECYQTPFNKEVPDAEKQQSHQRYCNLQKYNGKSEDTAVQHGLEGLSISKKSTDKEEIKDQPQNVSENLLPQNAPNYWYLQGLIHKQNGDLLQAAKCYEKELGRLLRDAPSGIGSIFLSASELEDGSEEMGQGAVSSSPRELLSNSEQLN

IFIT5 [3] = target: T1, IFIT5; assay: EMSA
IFIT1 = target: T3, IFIT1 (Homo sapiens, UniProt P09914 1-478); assay: EMSA
T3 sequence: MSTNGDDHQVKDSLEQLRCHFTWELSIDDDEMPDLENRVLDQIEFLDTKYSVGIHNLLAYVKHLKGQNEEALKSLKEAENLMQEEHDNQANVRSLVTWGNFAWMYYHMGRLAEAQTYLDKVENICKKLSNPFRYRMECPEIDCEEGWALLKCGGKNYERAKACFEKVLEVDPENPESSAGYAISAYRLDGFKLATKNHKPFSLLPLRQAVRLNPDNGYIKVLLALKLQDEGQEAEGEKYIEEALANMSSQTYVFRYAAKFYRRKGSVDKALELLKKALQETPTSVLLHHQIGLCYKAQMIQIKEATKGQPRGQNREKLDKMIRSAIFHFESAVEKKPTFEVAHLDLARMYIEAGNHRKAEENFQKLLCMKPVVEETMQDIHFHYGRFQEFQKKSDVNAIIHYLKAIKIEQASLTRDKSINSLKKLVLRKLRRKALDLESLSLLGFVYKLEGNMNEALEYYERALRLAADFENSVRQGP

IFIT5 [4] = target: T1, IFIT5; assay: crystal structure 1.86 A

UUU (ssRNA, 5'-triphosphate) [PPP-oligo-U]
binding result (IFIT5 [1]): binds

AAAA (ssRNA, 5'-triphosphate) [PPP-oligo-A]
binding result (IFIT5 [2]): binds

B1: PPP-3nt (dsRNA)
RNA 1: GGGAGAGAGAGAGAGAGAGUAAGGGCGUCGUCGCCCCGAGAAUU
RNA 2: ACUCUCUCUCUCUCUCU
modifications: 5'-triphosphate on strand 1
binding result (IFIT3): no binding
binding result (IFIT5 [3]): binds

B2: PPP-5nt (dsRNA)
RNA 1: GGGAGAGAGAGAGAGAGAGUAAGGGCGUCGUCGCCCCGAGAAUU
RNA 2: ACUCUCUCUCUCUCU
modifications: 5'-triphosphate on strand 1
binding result (IFIT1): binds

GGGAGAGAGAGAGAGAGAGUAAGGGCGUCGUCGCCCCGAGAAUU (ssRNA, 5'-triphosphate) [PPP-ss (44nt PPP-ssRNA)]
binding result (IFIT3): no binding
binding result (IFIT5 [3]): binds
binding result (IFIT1): binds

CCCC (ssRNA, 5'-triphosphate) [PPP-oligo-C]
binding result (IFIT5 [4]): binds
